Assay results as given in patent US20250320296A1 (published 2025).

Columns and labels:
human PD-L1 on CHO cells = molecular target: T1, human PD-L1 on CHO cells (human, UniProt Q9NZQ7 19-290); assay: FIG. 4: Octet avidity curves and FACS on CHO-PD-L1 cells
T1 construct: also called CHO-PD-L1 cells
Protocol: (§1) Antibody Activity. Varying concentrations of PD-L1 antibodies, with human IgG1 backbones, were added to CHO cells expressing either human or murine PD-L1 (CHO-PD-L1 cells). Binding was detected by addition of anti-human IgG1 secondary antibody conjugated to phycoerythrin. FACS analysis was performed, detecting phycoerythrin to determine fluorescence activity at a variety of antibody concentrations. EC50 was calculated using GraphPad Prism® software.

[1] = molecular target: T2, murine PD-L1 on CHO cells (murine, UniProt Q9EP73 19-290); assay: FIG. 4 legend: Octet avidity curves and FACS on CHO-PD-L1 cells
T2 construct: whole, on cells; also called CHO-PD-L1 cells
Protocol: as §1

T1 sequence (Q9NZQ7 19-290 limits assumed): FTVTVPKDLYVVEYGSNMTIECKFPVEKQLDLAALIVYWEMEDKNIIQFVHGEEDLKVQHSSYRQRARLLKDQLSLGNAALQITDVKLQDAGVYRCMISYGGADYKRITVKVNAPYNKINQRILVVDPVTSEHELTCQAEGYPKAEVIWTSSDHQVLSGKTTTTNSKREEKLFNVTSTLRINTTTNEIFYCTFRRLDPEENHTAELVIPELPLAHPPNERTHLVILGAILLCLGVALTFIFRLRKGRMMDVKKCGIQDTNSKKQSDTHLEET
T2 sequence (Q9EP73 19-290): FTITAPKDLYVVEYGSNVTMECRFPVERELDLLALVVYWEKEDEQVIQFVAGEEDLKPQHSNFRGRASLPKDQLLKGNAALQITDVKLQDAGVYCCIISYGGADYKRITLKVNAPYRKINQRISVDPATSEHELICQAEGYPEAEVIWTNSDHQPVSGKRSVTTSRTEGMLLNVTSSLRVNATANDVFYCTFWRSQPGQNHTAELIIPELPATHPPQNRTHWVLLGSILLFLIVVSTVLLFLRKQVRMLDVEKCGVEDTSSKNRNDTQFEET

binding result (human PD-L1 on CHO cells): binds
binding result [1]: binds
B1: ADI-20799 (antibody, human IgG1, V domains shown)
VH: QVQLVQSGAEVKKPGASVKVSCKASGYTFTGVYMHWVRQAPGQGLEWMGGIFPIGGTANYAQKFQGRVTITADESTSTAYMELSSLRSEDTAVYYCARDRTSGALYWGQGTLVTVSS
VL: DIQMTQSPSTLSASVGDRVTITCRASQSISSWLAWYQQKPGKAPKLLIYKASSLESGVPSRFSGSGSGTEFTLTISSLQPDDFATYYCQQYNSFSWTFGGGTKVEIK
